In patent US7067277 (H LUNDBECK A S, dated 2006):

T1: human GALR3 receptor (human, UniProt O60755 1-368)
T1 sequence (looked up): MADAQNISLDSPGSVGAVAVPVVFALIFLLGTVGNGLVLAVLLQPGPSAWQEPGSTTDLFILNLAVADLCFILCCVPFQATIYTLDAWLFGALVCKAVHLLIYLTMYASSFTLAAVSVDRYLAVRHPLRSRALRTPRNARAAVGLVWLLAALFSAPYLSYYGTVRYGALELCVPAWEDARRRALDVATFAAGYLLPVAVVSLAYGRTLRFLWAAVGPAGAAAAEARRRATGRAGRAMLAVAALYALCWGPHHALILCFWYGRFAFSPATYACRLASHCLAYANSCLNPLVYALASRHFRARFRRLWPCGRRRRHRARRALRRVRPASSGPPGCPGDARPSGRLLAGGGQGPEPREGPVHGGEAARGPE

T2: rat GALR3 receptor (rat, UniProt O88626 1-370)
T2 sequence (looked up): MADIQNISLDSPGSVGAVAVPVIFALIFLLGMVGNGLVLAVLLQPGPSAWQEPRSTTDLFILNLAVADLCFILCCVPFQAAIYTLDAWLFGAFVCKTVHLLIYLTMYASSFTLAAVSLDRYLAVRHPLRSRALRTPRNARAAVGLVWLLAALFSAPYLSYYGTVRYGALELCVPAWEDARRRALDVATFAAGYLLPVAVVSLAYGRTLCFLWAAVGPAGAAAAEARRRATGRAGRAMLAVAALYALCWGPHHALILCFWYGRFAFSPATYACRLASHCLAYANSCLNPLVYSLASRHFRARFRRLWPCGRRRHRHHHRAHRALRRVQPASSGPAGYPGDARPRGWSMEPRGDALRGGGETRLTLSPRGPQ

T3: human Y1 receptor (human, UniProt P25929 1-384)
T3 sequence (looked up): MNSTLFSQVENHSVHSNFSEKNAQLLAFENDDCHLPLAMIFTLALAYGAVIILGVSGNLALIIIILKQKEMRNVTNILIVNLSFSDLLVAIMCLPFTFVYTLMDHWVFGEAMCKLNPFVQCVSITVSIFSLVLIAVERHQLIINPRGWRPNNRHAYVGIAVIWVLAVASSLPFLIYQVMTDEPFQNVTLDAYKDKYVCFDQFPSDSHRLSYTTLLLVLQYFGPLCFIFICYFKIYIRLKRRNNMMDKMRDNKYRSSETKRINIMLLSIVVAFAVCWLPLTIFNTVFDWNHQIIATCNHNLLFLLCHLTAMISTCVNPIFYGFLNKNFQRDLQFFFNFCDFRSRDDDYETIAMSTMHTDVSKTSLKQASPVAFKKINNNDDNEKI

T4: human 5HT1A receptor (human, UniProt P08908 1-422)
T4 sequence (looked up): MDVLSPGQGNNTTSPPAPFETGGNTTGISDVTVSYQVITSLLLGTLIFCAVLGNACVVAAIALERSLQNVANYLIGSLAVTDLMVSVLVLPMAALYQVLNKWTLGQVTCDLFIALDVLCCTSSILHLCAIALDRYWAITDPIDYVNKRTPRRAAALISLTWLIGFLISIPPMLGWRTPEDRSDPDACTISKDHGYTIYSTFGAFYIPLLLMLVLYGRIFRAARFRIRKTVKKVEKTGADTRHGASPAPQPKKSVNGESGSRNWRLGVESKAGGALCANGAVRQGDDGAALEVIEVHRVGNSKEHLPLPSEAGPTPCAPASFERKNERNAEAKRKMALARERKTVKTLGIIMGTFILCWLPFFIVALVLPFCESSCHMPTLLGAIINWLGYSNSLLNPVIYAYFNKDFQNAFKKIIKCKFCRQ

T5: human α2C adrenergic receptor (human, UniProt P18825 1-462)
T5 sequence (looked up): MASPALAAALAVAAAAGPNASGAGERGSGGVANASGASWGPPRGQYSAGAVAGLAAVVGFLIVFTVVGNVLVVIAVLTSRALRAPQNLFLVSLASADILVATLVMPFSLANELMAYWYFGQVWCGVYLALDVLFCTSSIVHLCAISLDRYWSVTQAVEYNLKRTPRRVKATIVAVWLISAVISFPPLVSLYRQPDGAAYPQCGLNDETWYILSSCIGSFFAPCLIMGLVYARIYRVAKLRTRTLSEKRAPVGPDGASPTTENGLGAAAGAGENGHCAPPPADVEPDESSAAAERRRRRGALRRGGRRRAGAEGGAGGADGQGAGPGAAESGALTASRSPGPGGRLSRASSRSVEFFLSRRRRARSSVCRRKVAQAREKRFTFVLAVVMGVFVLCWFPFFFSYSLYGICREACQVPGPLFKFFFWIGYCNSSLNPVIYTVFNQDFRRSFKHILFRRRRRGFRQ

B1: C. elegans Gαq/z5 (other)
chain: MACCLSEEAREQKRINQEIEKQLQRDKRNARRELKLLLLGTGESGKSTFIKQMRIIHGQGYSEEDKRAHIRLVYQNVFMAIQSMIRAMDTLDIKFGNESEELQEKAAVVREVDFESVTSFEEPYVSYIKELWEDSGIQECYDRRREYQLTDSAKYYLSDLRRLAVPDYLPTEQDILRVRVPTTGIIEYPFDLEQIIFRMVDVGGQRSERRKWIHCFENVTSIMFLVALSEYDQVLVECDNENRMEESKALFRTIITYPWFTNSSVILFLNKKDLLEEKILYSHLADYFPEYDGPPRDPIAAREFILKMFVDLNPDADKIIYSHFTCATDTENIRFVFAAVKDTILQHNLKYIGLC
B2: C. elegans Gαq/z9 (other)
chain: MACCLSEEAREQKRINQEIEKQLQRDKRNARRELKLLLLGTGESGKSTFIKQMRIIHGQGYSEEDKRAHIRLVYQNVFMAIQSMIRAMDTLDIKFGNESEELQEKAAVVREVDFESVTSFEEPYVSYIKELWEDSGIQECYDRRREYQLTDSAKYYLSDLRRLAVPDYLPTEQDILRVRVPTTGIIEYPFDLEQIIFRMVDVGGQRSERRKWIHCFENVTSIMFLVALSEYDQVLVECDNENRMEESKALFRTIITYPWFTNSSVILFLNKKDLLEEKILYSHLADYFPEYDGPPRDPIAAREFILKMFVDLNPDADKIIYSHFTCATDTENIRFVFAAVKDTILQNNLKYIGLC
B3: Human Gαq/z5 (Ala→Ser substitution at position 171) (other)
chain: MTLESIMACCLSEEAKEARRINDEIERQLRRDKRDARRELKLLLLGTGESGKSTFIKQMRIIHGSGYSDEDKRGFTKLVYQNIFTAMQAMIRAMDTLKIPYKYEHNKAHAQLVREVDVEKVSAFENPYVDAIKSLWNDPGIQECYDRRREYQLSDSTKYYLNDLDRVADPSYLPTQQDVLRVRVPTTGIIEYPFDLQSVIFRMVDVGGQRSERRKWIHCFENVTSIMFLVALSEYDQVLVESDNENRMEESKALFRTIITYPWFQNSSVILFLNKKDLLEEKIMYSHLVDYFPEYDGPQRDAQAAREFILKMFVDLNPDSDKIIYSHFTCATDTENIRFVFAAVKDTILQLNLKYIGLC

Key:
Assay in all cases: cell-based or functional assay
human GALR3 receptor = target: T1, human GALR3 receptor
rat GALR3 receptor = target: T2, rat GALR3 receptor
[1] = target: human dopamine D1 receptor (human, UniProt P21728 1-446)
human Y4 receptor = human Y4 receptor (human, UniProt P50391 1-375)
mouse 5HT5B receptor = mouse 5HT5B receptor (mouse, UniProt P31387 1-370)
human Y1 receptor = target: T3, human Y1 receptor
[2] = target: human dopamine D2 receptor (human, UniProt P14416 1-443)
human 5HT1E receptor = human 5HT1E receptor (human, UniProt P28566 1-365)
[3] = target: human β2 adrenergic receptor (human, UniProt P07550 1-413)
rat Y4 receptor = rat Y4 receptor (rat, UniProt Q63447 1-375)
human 5HT6 receptor = human 5HT6 receptor (human, UniProt P50406 1-440)
human 5HT1A receptor = target: T4, human 5HT1A receptor
human 5HT7 receptor = human 5HT7 receptor (human, UniProt P34969 1-479)
human 5HT1B receptor = human 5HT1B receptor (human, UniProt P28222 1-390)
human 5HT4 receptor = human 5HT4 receptor (human, UniProt Q13639 1-388)
[4] = target: T5, human α2C adrenergic receptor

Sequence of human dopamine D2 receptor (P14416 whole entry): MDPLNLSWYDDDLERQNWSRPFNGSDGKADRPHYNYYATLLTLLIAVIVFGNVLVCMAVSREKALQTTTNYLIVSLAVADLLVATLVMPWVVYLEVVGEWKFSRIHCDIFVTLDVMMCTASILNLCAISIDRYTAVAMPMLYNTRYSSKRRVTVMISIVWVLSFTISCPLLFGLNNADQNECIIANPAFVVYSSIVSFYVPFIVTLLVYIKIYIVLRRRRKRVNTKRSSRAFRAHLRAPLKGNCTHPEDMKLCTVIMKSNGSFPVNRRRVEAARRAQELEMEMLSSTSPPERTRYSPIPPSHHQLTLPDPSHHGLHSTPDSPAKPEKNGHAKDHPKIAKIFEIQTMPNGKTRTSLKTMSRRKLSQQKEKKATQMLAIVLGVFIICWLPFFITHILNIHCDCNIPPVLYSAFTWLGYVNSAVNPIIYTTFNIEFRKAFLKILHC
Sequence of human 5HT1E receptor (P28566 whole entry): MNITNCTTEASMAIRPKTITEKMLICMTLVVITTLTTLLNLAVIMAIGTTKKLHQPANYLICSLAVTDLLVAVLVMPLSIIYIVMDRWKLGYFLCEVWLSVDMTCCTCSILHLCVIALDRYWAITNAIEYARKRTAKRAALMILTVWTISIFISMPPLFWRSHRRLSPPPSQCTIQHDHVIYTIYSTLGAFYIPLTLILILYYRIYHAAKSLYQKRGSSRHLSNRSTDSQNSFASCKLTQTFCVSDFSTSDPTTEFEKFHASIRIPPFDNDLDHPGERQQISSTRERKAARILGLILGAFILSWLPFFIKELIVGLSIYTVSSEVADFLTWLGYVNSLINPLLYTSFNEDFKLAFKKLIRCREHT
Sequence of rat Y4 receptor (Q63447 whole entry): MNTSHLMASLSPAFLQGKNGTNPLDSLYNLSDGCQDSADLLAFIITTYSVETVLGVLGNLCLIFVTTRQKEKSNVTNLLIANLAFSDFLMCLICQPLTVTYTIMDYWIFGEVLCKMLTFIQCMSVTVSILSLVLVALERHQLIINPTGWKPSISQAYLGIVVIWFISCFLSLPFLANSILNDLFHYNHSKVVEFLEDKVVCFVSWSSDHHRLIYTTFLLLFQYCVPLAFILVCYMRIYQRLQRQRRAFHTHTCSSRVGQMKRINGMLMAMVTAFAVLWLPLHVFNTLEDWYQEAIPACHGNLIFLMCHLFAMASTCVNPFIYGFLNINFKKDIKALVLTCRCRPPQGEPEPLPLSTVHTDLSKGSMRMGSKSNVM
Sequence of human 5HT4 receptor (Q13639 whole entry): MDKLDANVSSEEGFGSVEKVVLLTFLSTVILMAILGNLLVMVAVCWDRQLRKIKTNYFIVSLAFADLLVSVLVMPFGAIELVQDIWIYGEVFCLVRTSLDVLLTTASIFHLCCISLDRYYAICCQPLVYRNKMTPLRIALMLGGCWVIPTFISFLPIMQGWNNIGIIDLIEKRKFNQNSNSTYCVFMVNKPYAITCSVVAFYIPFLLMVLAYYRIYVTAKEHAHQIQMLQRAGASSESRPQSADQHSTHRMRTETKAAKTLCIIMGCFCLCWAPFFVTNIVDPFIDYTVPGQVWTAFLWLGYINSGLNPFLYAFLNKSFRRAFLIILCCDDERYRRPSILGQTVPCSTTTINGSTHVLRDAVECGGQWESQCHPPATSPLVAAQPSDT
Sequence of mouse 5HT5B receptor (P31387 whole entry): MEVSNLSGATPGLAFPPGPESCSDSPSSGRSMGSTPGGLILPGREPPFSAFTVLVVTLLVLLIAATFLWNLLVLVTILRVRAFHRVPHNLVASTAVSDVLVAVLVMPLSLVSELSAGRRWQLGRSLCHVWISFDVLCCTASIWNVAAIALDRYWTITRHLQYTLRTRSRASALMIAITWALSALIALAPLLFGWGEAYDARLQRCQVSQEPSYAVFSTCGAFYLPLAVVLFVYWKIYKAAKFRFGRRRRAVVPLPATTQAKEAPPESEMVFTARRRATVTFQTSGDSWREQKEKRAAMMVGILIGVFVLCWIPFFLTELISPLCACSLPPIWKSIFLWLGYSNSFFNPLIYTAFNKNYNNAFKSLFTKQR
Sequence of human 5HT6 receptor (P50406 whole entry): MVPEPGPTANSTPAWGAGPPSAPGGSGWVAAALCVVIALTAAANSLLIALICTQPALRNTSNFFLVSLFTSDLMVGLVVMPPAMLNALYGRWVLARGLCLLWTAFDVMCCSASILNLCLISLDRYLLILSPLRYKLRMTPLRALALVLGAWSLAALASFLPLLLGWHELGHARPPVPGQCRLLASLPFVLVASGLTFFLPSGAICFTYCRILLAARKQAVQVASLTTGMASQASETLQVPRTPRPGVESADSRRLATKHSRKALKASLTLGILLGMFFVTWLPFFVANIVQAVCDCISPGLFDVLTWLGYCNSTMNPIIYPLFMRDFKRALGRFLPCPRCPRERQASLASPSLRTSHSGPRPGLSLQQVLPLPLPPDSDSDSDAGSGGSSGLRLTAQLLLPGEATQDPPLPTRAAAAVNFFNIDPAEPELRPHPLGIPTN
Sequence of human dopamine D1 receptor (P21728 whole entry): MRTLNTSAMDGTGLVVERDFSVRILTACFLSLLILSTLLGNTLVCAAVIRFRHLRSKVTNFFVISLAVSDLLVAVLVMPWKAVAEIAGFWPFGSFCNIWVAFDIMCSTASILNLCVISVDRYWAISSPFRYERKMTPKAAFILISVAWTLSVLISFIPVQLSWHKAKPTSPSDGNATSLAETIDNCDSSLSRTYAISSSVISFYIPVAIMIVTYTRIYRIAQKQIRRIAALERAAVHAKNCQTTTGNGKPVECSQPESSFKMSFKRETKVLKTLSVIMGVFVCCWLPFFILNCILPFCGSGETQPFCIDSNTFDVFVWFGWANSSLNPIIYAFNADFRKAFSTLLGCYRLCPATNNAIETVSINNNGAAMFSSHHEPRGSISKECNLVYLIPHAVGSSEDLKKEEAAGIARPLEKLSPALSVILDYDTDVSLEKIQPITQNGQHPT
Sequence of human 5HT1B receptor (P28222 whole entry): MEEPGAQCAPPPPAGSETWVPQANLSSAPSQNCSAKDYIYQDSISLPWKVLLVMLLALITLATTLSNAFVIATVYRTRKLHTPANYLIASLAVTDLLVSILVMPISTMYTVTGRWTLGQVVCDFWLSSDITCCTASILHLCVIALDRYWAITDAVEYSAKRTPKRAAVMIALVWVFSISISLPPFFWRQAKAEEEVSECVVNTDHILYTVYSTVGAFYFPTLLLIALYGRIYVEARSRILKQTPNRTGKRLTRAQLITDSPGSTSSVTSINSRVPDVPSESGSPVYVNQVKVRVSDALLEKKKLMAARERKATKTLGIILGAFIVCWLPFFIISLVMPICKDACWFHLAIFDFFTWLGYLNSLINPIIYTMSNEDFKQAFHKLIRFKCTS
Sequence of human 5HT7 receptor (P34969 whole entry): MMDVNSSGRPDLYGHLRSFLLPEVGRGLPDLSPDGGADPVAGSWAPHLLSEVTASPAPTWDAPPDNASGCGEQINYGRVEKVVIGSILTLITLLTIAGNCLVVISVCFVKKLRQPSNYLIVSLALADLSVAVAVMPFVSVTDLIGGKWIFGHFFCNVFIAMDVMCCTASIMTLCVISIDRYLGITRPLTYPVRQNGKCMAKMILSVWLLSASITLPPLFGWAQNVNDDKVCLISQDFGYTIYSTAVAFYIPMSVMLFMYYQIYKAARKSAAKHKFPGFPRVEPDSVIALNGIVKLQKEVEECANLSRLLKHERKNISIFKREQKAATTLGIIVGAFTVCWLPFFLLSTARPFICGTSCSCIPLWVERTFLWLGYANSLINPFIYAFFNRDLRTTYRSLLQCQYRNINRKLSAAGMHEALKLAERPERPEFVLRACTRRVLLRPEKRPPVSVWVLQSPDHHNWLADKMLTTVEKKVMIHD
Sequence of human Y4 receptor (P50391 whole entry): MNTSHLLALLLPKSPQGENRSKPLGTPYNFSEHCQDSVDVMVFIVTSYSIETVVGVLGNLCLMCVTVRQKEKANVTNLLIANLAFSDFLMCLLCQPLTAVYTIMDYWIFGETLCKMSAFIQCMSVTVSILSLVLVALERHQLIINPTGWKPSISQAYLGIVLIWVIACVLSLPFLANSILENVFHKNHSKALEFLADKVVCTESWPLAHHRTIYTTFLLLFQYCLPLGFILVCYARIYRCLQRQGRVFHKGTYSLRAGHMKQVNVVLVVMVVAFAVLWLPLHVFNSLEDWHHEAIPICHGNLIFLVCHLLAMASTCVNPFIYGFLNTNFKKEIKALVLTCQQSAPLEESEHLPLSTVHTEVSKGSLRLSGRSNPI

| Binder | max Ca2+ signal, COS-7, FLIPR; agonist GAL (human GALR3 receptor) | max Ca2+ signal, COS-7, FLIPR; agonist GAL (rat GALR3 receptor) | max Ca2+ signal, COS-7, FLIPR; agonist DA [1] | max Ca2+ signal, COS-7, FLIPR; agonist PP (human Y4 receptor) | max Ca2+ signal, COS-7, FLIPR; agonist 5HT (mouse 5HT5B receptor) | max Ca2+ signal, COS-7, FLIPR; agonist NPY (human Y1 receptor) | max Ca2+ signal, COS-7, FLIPR; agonist DA [2] | max Ca2+ signal, COS-7, FLIPR; agonist 5HT (human 5HT1E receptor) | max Ca2+ signal, COS-7, FLIPR; agonist NE [3] | max Ca2+ signal, COS-7, FLIPR; agonist PP (rat Y4 receptor) | max Ca2+ signal, COS-7, FLIPR; agonist 5HT (human 5HT6 receptor) | max Ca2+ signal, COS-7, FLIPR; agonist 5HT (human 5HT1A receptor) | max Ca2+ signal, COS-7, FLIPR; agonist 5HT (human 5HT7 receptor) | max Ca2+ signal, COS-7, FLIPR; agonist 5HT (human 5HT1B receptor) | max Ca2+ signal, COS-7, FLIPR; agonist 5HT (human 5HT4 receptor) | max Ca2+ signal, COS-7, FLIPR; agonist NE [4] |
| --- | --- | --- | --- | --- | --- | --- | --- | --- | --- | --- | --- | --- | --- | --- | --- | --- |
| B1 | 1520 fluorescence units | 2300 fluorescence units | 12100 fluorescence units | 9420 fluorescence units | 265 fluorescence units | 7720 fluorescence units | 7620 fluorescence units | 229 fluorescence units | 1840 fluorescence units | 3660 fluorescence units | 1290 fluorescence units | 2000 fluorescence units | 166 fluorescence units | 929 fluorescence units | 1010 fluorescence units | 4140 fluorescence units |
| B2 | 2050 fluorescence units | 2970 fluorescence units | 13100 fluorescence units | 7400 fluorescence units | 443 fluorescence units | 6730 fluorescence units | 4300 fluorescence units | 238 fluorescence units | 1700 fluorescence units | 2580 fluorescence units | 2290 fluorescence units | 3140 fluorescence units | 129 fluorescence units | 1220 fluorescence units | 1700 fluorescence units | 3870 fluorescence units |
| B3 | 804 fluorescence units | 2800 fluorescence units | 0 fluorescence units | 9970 fluorescence units | 251 fluorescence units | 1880 fluorescence units | 15600 fluorescence units | 202 fluorescence units | 128 fluorescence units | 4390 fluorescence units | 210 fluorescence units | 478 fluorescence units | 90 fluorescence units | 405 fluorescence units | 2160 fluorescence units | 6110 fluorescence units |
